From the supplement of paper PMC7125110
± gives the standard error. Fewer inactive variants are shown than the library holds.

B1: glmS ribozyme (parent)
chain: AUAAAAGCGCCAGAACUACAGAAAUGUAGUUGACGAGGAGGAGGUUUAUCGAAUUUUCGGCGGAUGCCUCCAAA

Variants of: B1
Assay: self-cleavage kobs at 2500 uM GlcN6P; higher = faster cleavage; RNA array
Conditions: with glucosamine-6-phosphate
How it was run: (§1)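 Glucosamine-6-phosphate in HEPES/KCl/Mg(OAc)2 buffer, at 40 μM to 10 mM, was flowed over barcoded ribozyme variants transcribed in situ by E. coli RNA polymerase on sequenced MiSeq chips. Tracking was through a hybridised Cy3 probe at 37 °C. kobs, kcat and KM came from exponential decay fits and weighted Michaelis–Menten fits of normalised per-tile medians.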

Row | Variant | self-cleavage kobs at 2500 uM GlcN6P [s⁻¹]
1 | U47G A52C G60C C71A | < 1e-05
2 | G41U C50U G51U | < 1e-05
3 | C8A A15C G32A | < 1e-05
4 | G29A G60U A64G | < 1e-05
5 | U31C C34A G41U U57G G60C | < 1e-05
6 | C8A A53C U55C G60U C68G | < 1e-05
7 | A12G U56G C70G | 0.000113 ± 3e-05
8 | A6C G13U A33U A52C G63C | < 1e-05
9 | G7C G21U C67G | < 1e-05
10 | U47A C50A G59U G66C | < 1e-05
11 | A12U A39U G40A | 0.00415 ± 0.0015
12 | C11U U49A A52G | < 1e-05
13 | C10G A36C G60C C70U | < 1e-05
14 | G7U G38U G66U | < 1e-05
15 | A12U A33U A42G G51C U55A C71G | < 1e-05
16 | A12U A36C G59U U65A | < 1e-05
17 | G7C C10U G13C G66U | < 1e-05
18 | A39G C50U U55A C70U | 4.43e-05 ± 1.7e-05
19 | G41C A52C U55G G60C C68U | < 1e-05
20 | G40U A48U A52U | < 1e-05
21 | A53U U56A C68U | 0.000647 ± 0.00019
22 | A15C G37U G40C | < 1e-05
23 | G44A G66U C67G | 0.00142 ± 0.00035

Row | Variant | self-cleavage kobs at 2500 uM GlcN6P [s⁻¹]
24 | G7C C16A G43C U45G C71U | < 1e-05
25 | U46A U56G C58U G59U | < 1e-05
26 | C8A C61G A64G | < 1e-05
27 | A12U G29C A36U G44U C61G | < 1e-05
28 | U30C G37C G38C C61U | < 1e-05
29 | U30A A36U C71A | < 1e-05
30 | A52G U57G C58U | 4.96e-05 ± 1.8e-05
31 | A15G A33C U45A | 0.000135 ± 4.1e-05
32 | U47C C67G C70U | 0.000129 ± 4.1e-05
33 | C8G A64G U69A C71U | < 1e-05
34 | C11U A48U G60U | < 1e-05
35 | C34A A42C A52U C71A | < 1e-05
36 | G40C G44A U54A C61A A64G | < 1e-05
37 | C10G C16G G32C A42U G60U | < 1e-05
38 | G38C U56A C67G C68G | 0.000115 ± 4.5e-05
39 | G29C G38U U56C | < 1e-05
40 | G43U U47G G59C | < 1e-05
41 | A15U U56C U57G G63A C70G | 0.000104 ± 4.9e-05
42 | A6G C10U U31A G60U C67U | < 1e-05
43 | A12C A14G G40C U56G C68U | < 1e-05
44 | U30C U31C A53U U55A | 0.00034 ± 7.2e-05
45 | A33C G37A U47A | < 1e-05
46 | G37C G41C U47C G59U | < 1e-05

Row | Variant | self-cleavage kobs at 2500 uM GlcN6P [s⁻¹]
47 | U31G G41A G63U | < 1e-05
48 | A39U U65C C70G | 0.000144 ± 3.7e-05
49 | C19A U30C | 7.18e-05 ± 2.3e-05
50 | G35U G41A A52U C71U | < 1e-05
51 | A15C G32U C34U | < 1e-05
52 | G13A G29U G60U G66A | < 1e-05
53 | G7A G32U C58U C67U | < 1e-05
54 | C8A A33C G40A U47G | < 1e-05
55 | U46G G51U C67A | < 1e-05
56 | G41A A53C U54C G60C G63U | < 1e-05
57 | U45G U57G C68A C70A | < 1e-05
58 | G13U A39C A48C | < 1e-05
59 | G41U U47C G51U | < 1e-05
60 | A14U G32U G40U | 3.98e-05 ± 1.3e-05
61 | G13U U31G G41U G43U | < 1e-05
62 | G9A C11G A33U G35A C58A C70G | < 1e-05
63 | C8U G13A A15G | < 1e-05
64 | C19U G41C U55C C70A | 0.000203 ± 9.2e-05
65 | G40C U56C C71A | 9.43e-05 ± 2.2e-05
66 | G37C G60C C68G | < 1e-05
67 | A14U A36U G41A A48G C68U | < 1e-05
68 | G32C A64G C70A | < 1e-05
69 | A6U C10G A39U C71U | < 1e-05

Row | Variant | self-cleavage kobs at 2500 uM GlcN6P [s⁻¹]
70 | G7U G9U U56A G59U | < 1e-05
71 | U31C A36U | < 1e-05
72 | C11G A15U A42U U46C | < 1e-05
73 | C8G A15G U30C A42G U45A U46G | < 1e-05
74 | C11U G29C G44U G63U U65C C67U C71U | < 1e-05
75 | A15G A33U G40U G41A | < 1e-05
76 | G13C U30C G35C G40U U47C C50A | < 1e-05
77 | G40U U49A G62C C68U | < 1e-05
78 | C16U U31C U46C C70U | 0.000342 ± 0.00015
79 | A14G G32U U55G | 0.000962 ± 0.00018
80 | G43U A48U G62A C67A | < 1e-05
81 | C8G A15U U47G | < 1e-05
82 | G9U C16A U30G | < 1e-05
83 | A12U G51A G60U | < 1e-05
84 | C16A A36C U49A U65G | < 1e-05
85 | A6G C34G G40A C67G C70U | < 1e-05
86 | C10U A14C G32C | < 1e-05
87 | G7U C10G G43U | < 1e-05
88 | C11A U45A U56A | 9.98e-05 ± 2.9e-05
89 | G44C A53U U54G | 7.38e-05 ± 2e-05
90 | A15C U55A G60C | < 1e-05
91 | A36U A48U U56C | < 1e-05
92 | A12C A15U G41A A53C C58U U65A | < 1e-05

Row | Variant | self-cleavage kobs at 2500 uM GlcN6P [s⁻¹]
93 | C10A C16G C50A C58G C61U | 6.15e-05 ± 1.9e-05
94 | G44A A48G C67G | 8.88e-05 ± 2.9e-05
95 | A14G A33U G60U | < 1e-05
96 | A6U G13A U49C | < 1e-05
97 | G9A A33U A39C A42U U46G U55A G60U A64U | < 1e-05
98 | A15U U55G C58U C70G | 6.29e-05 ± 2.7e-05
99 | A12G A42C G59U G63U | < 1e-05
100 | U30A C50G U56A C67U | 7.78e-05 ± 1.9e-05
101 | A12C U54G C71U | 0.00338 ± 0.0011
102 | A39U G66A C68G | 4.5e-05 ± 2e-05
103 | U30G G37A A42U | 6.68e-05 ± 1.2e-05
104 | A6G A39U U49C | < 1e-05
105 | G9U G32A A33C | < 1e-05
106 | G29U U45G C71U | 0.000117 ± 5e-05
107 | U30G A53C U54A | 0.000695 ± 0.00017
108 | C11U A14G C70G | 0.000303 ± 5e-05
109 | A14C C34G A39C | < 1e-05
110 | A15G C34A G37C | < 1e-05
111 | U31G G32A U46G A52U | < 1e-05
112 | G32C G62C C67U | < 1e-05
113 | C11G G43U C58A | < 1e-05
114 | A33C G59C A64G G66A C70A | < 1e-05
115 | A52U C68U C70U | 5.68e-05 ± 1.7e-05

Row | Variant | self-cleavage kobs at 2500 uM GlcN6P [s⁻¹]
116 | A12G A53C U56G | 5.07e-05 ± 1.5e-05
117 | A6G C34U G40C | < 1e-05
118 | C10A G51U C67G | 0.000109 ± 5.4e-05
119 | C8G G35A U65C | < 1e-05
120 | A48G U69G | 0.000101 ± 3.7e-05
121 | G32A G44U U49A G63A | < 1e-05
122 | G41A A53G U55A | 0.000666 ± 0.00022
123 | A48U U56A | 9.99e-05 ± 3.4e-05
124 | C11U U49C U56G | < 1e-05
125 | G13C U47A U69G | 0.000497 ± 0.00015
126 | C11A C16A A42C | < 1e-05
127 | A12C A14U A53C | 8.51e-05 ± 4e-05
128 | A12G A42U U69A | 0.000849 ± 0.00021
129 | A14G U31C G40U U55A | 0.0012 ± 0.00032
130 | G13C G29C G38U C67G | 0.000596 ± 0.0002
131 | C16G G29U C34G | < 1e-05
132 | G32U G38C G40C U57C C67A | < 1e-05
133 | C34A G40C U46C U47A G59C | < 1e-05
134 | C8U A39U C67G | < 1e-05
135 | U30C U45G C70U | 7.88e-05 ± 1.9e-05
136 | G41U A53U U56G | 0.00031 ± 9.3e-05
137 | C11U A14C C16A G38U G40A C50G | 6.83e-05 ± 2.4e-05
138 | C10G C34G A48C | < 1e-05

Row | Variant | self-cleavage kobs at 2500 uM GlcN6P [s⁻¹]
139 | A6C G32A G59C | < 1e-05
140 | A6G G38C G41U C68U | < 1e-05
141 | U30C A42C U46A | < 1e-05
142 | A52U C67A C71U | 7.56e-05 ± 3.1e-05
143 | A33G U46A G59C C67G C68G | 4.87e-05 ± 2.1e-05
144 | A12U A36G A52C C67U C71U | < 1e-05
145 | A12G A14C A53U A64C | < 1e-05
146 | C34A A39C G66C C71A | < 1e-05
147 | A12G U49A U65A | < 1e-05
148 | A6C G7C C10U G29C C58G | < 1e-05
149 | U31C G32C A39G | 0.000381 ± 0.00015
150 | G32U U56G C71A | 9.14e-05 ± 2e-05
151 | G38A U56G | < 1e-05
152 | G43A U54A | 3.85e-05 ± 1.7e-05
153 | C10G A42C U45G | < 1e-05
154 | G32A U45G G51C | < 1e-05
155 | C16U G51C U54C U57G | < 1e-05
156 | C8U A42G G43U U49G | < 1e-05
157 | A15U A64G C71G | 5.53e-05 ± 1.5e-05

Variants of: B1
Assay: self-cleavage kobs at 10000 uM GlcN6P; higher = faster cleavage; RNA array
Conditions: with glucosamine-6-phosphate
How it was run: as §1

Row | Variant | self-cleavage kobs at 10000 uM GlcN6P [s⁻¹]
158 | A12G U56G C70G | 7.52e-05 ± 2e-05
159 | U30A A36U C71A | < 1e-05
160 | U47C C67G C70U | 8.24e-05 ± 1.8e-05
161 | C19A U30C | 6.71e-05 ± 2.2e-05
162 | U46G G51U C67A | < 1e-05
163 | U31C A36U | < 1e-05
164 | A15G A33U G40U G41A | < 1e-05
165 | A14G A33U G60U | < 1e-05
166 | U30G G37A A42U | 9.36e-05 ± 2.3e-05
167 | C11U A14G C70G | 0.000165 ± 3.1e-05
168 | G32C G62C C67U | < 1e-05
169 | A33C G59C A64G G66A C70A | < 1e-05
170 | A48G U69G | 3.66e-05 ± 1.3e-05
171 | A12G A42U U69A | 0.00112 ± 0.00029
